The record followed here is patent US20230399394A1 (SUNSHINE GUOJIAN PHARMACEUTICAL SHANGHAI, published 2023).

Substitutions are numbered along the chain they refer to.

Test [1] addresses T1, IL-33 mutant protein L50A (human, UniProt O95760 112-270).
T1 construct: Prokaryotic expression
T1 chain: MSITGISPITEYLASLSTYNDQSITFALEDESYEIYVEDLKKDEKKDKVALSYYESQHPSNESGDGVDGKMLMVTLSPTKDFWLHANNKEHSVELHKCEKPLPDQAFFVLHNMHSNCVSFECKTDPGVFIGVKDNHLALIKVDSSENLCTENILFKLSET
Description: ELISA as Example 9; row L50A. The protocol:
(§1) SA protein was diluted to 2 μg/mL to coat ELISA plate at 100 μL/well overnight at 4° C. The plate was washed with PBST (PBS containing 0.05% Tween20) for 3 times, and blocked with 2% BSA prepared in PBS at 200 μL/well, at room temperature for 2 h. After the plate was washed twice with PBST, IL-33-his-biotin protein was diluted to 1 μg/mL with 1% BSA prepared in PBST, and was added to ELISA plate at 100 μL/well. The plate was incubated at room temperature for 1 h, and each monoclonal antibody was diluted with 1% BSA prepared in PBST in a 3-fold gradient. The highest concentration of antibody was 10 μg/mL, and the antibody was diluted for 12 gradients. Each diluted monoclonal antibody was added to ELISA wells with 100 μL/well, and the plate was incubated at room temperature for 1 h. Each sample was added to duplicate wells in parallel. The plate was washed with PBST for 3 times, and HRP-anti human IgG Fc secondary antibody prepared with PBST was diluted at an appropriate ratio, and was added to ELISA wells at 100 μL/well. […] Each reaction solution was shaken uniformly and OD450 nm was read on a microplate reader. The data was analyzed and EC₅₀ was calculated.
(§2) Subsequently, according to the experimental method of Example 9, the affinity of the above mutant proteins to 874F7-Hu1 was determined, and IL-33 proteins (WT-1, WT-2, WT-3, and WT-4) without any mutation were set as controls.

Test [2] addresses T2, IL-33 mutant protein Y53A (human, UniProt O95760 112-270).
T2 construct: Prokaryotic expression
T2 chain: T1 chain with A50L, Y53A
Description: ELISA as Example 9; row Y53A against WT-2. As to the method:
as §1, §2
(An ELISA detects its analyte on a solid surface through an enzyme-linked reagent.)

Test [3] addresses T3, IL-33 mutant protein K48A (human, UniProt O95760 112-270).
T3 construct: Prokaryotic expression
T3 chain: T1 chain with K48A, A50L
Description: ELISA as Example 9; row K48A. As to the method: as §1, §2

For test [4], the target named is T2, IL-33 mutant protein Y53A. Description: ELISA as Example 9; row Y53A. The protocol: as §1, §2
Test [5] deals with T4, IL-33 protein without any mutation (WT) (human, UniProt O95760 112-270).
T4 construct: Control of the alanine scan (four runs WT-1 to WT-4); also called WT-1; WT-2
T4 sequence: T1 chain with A50L
Description: ELISA as Example 9; row WT-3, the reference itself. As to the method:
as §1, §2

Test [6] has as its target T4, IL-33 protein without any mutation (WT). Description: ELISA as Example 9; row WT-2, the reference itself. As to the method:
as §1, §2

The target in test [7] is T5, IL-33 mutant protein P59A (human, UniProt O95760 112-270).
T5 construct: Prokaryotic expression
T5 chain: T1 chain with A50L, P59A
Description: ELISA as Example 9; row P59A. As to the method: as §1, §2

For test [8], the target named is T4, IL-33 protein without any mutation (WT). Description: ELISA as Example 9; row WT-4, the reference itself. As to the method: as §1, §2
For test [9], the target named is T6, IL-33 mutant protein L51A (human, UniProt O95760 112-270).
T6 construct: Prokaryotic expression
T6 chain: T1 chain with A50L, L51A
Description: ELISA as Example 9; row L51A against WT-2. As to the method: as §1, §2

Test [10] addresses T7, IL-33 mutant protein D65A (human, UniProt O95760 112-270).
T7 construct: Prokaryotic expression
T7 chain: T1 chain with A50L, D65A
Description: ELISA as Example 9; row D65A against WT-3. As to the method:
as §1, §2

Test [11] deals with T4, IL-33 protein without any mutation (WT). Description: ELISA as Example 9; row WT-3. The protocol:
as §1, §2

Test [12] deals with T3, IL-33 mutant protein K48A. Description: ELISA as Example 9; row K48A against WT-2. The protocol: as §1, §2

B1: 874F7-Hu1 (antibody, human IgG4 S228P, kappa)
heavy: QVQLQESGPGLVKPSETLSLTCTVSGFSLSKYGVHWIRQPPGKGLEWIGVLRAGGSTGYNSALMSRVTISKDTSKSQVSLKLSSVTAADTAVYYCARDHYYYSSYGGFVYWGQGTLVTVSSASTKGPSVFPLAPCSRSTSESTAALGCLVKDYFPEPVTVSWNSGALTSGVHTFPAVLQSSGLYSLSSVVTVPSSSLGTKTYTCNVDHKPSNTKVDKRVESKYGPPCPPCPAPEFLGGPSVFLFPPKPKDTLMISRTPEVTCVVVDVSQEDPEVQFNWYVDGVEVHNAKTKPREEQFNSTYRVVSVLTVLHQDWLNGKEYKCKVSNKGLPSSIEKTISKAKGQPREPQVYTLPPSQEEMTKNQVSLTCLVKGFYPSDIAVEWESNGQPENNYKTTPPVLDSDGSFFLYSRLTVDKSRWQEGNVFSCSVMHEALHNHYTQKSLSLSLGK
light: DIQMTQSPSSVSASVGDRVTITCLASQTIGAWLAWYQQKPGKSPKLLIYAATRLADGVPSRFSGSGSGTDFTLTISSLQPEDFATYYCQQLDSSPYTFGQGTKVEIKRTVAAPSVFIFPPSDEQLKSGTASVVCLLNNFYPREAKVQWKVDNALQSGNSQESVTEQDSKDSTYSLSSTLTLSKADYEKHKVYACEVTHQGLSSPVTKSFNRGEC
notes: also called 874F7-Hul; humanized antibody 874F7-Hu1
Take B1: the EC50 (usually the concentration needed to bring the measured effect to its halfway point) in [1] turned out to be 3.34 nM; in test [3], 0.49 nM; in test [4], 0.44 nM; in test [7] it was 0.12 nM; in [11], 0.18 nM. Besides, the Affinity decline ratio was 3.3 fold in [2]; 1 fold in test [5]; 1 fold in [6]; 1 fold in test [8]; 6.8 fold in test [9]; 192 fold in test [10]. Moreover, the Affinity decline ratio in [12] is 3.7 fold.
